The assay addresses StrepHA-SGFP2 (control). The assay can be described thus: co-IP; co-IP/HiBiT assay: SGFP2-fused proteins immunoprecipitated with anti-GFP pAb from HEK293 or HEK293 ALG-2KO lysates (with or without co-expressed FLAG-ALG-2); HKM, 1% Nonidet P-40, 10 mM NEM, 10 μM CaCl2; co-precipitated HiBiTHA-SARAF read by lytic HiBiT assay with LgBiT, normalised by ….

Where only a bound is given, the exact number is not on record here.

B1: full-length HiBiTHA-SARAF (WT) (natural protein)
chain: WNDPDRMLLRDVKALTLHYDRYTTSRRLDPIPQLKCVGGTAGCDSYTPKVIQCQNKGWDGYDVQWECKTDLDIAYKFGKTVVSCEGYESSEDQYVLRGSCGLEYNLDYTELGLQKLKESGKQHGFASFSDYYYKWSSADSCNMSGLITIVVLLGIAFVVYKLFLSDGQYSPPPYSEYPPFSHRYQRFTNSAGPPPPGFKSEFTGPQNTGHGATSGFGSAFTGQQGYENSGPGFWTGLGTGGILGYLFGSNRAATPFSDSWYYPSYPPSYPGTWNRAYSPLHGGSGSYSVCSNSDTKTRTASGYGGTRRR
For B1, the relative interaction activity (WT expressed as 100%) was under 0.3%.

These data come from paper PMC7504102.
